From paper PMC7982548 (The Journal of Biological Chemistry, 2005)
Read-outs that look alike come from different tables or passages of the source.

Tests used:
SEC = target: the molecule itself; assay: SEC
ITC [1] = target: the molecule itself; assay: ITC
ITC [2] = target: the molecule itself; assay: ITC; remark: listed apart in the source
[3] = target: 6-amino acid model peptide substrate ([…]); assay: SPR

B1: N-terminal deleted SARS 3CL^pro (residues 8-303) (domain or fragment)
chain: FPSGKVEGCMVQVTCGTTTLNGLWLDDTVYCPRHVICTAEDMLNPNYEDLLIRKSNHSFLVQAGNVQLRVIGHSMQNCLLRLKVDTSNPKTPKYKFVRIQPGQTFSVLACYNGSPSGVYQCAMRPNHTIKGSFLNGSCGSVGFNIDYDCVSFCYMHHMELPTGVHAGTDLEGKFYGPFVDRQTAQAAGTDTTITLNVLAWLYAAVINGDRWFLNRFTTTLNDFNLVAMKYNYEPLTQDHVDILGPLSAQTGIAVLDMCAALKELLQNGMNGRTILGSTILEDEFTPFDVVRQCSGVTFQ
- dimer/monomer ratio at 1 mg/ml (SEC): 0.65
- dimer/monomer ratio at 2 mg/ml (SEC): 0.66
- dimer/monomer ratio at 7 mg/ml (SEC): 0.8
- Kd (ITC [1]): 261 ± 15 µM
- Kd (ITC [2]): 262 ± 15 µM
- dH (ITC [2]): -6.89 ± 0.25 kcal/mol

B2: full-length SARS coronavirus 3C-like proteinase (enzyme)
chain: SGFRKMAFPSGKVEGCMVQVTCGTTTLNGLWLDDTVYCPRHVICTAEDMLNPNYEDLLIRKSNHSFLVQAGNVQLRVIGHSMQNCLLRLKVDTSNPKTPKYKFVRIQPGQTFSVLACYNGSPSGVYQCAMRPNHTIKGSFLNGSCGSVGFNIDYDCVSFCYMHHMELPTGVHAGTDLEGKFYGPFVDRQTAQAAGTDTTITLNVLAWLYAAVINGDRWFLNRFTTTLNDFNLVAMKYNYEPLTQDHVDILGPLSAQTGIAVLDMCAALKELLQNGMNGRTILGSTILEDEFTPFDVVRQCSGVTFQ
- Kd [3]: ~152 µM
- Kd (ITC [2]): 227 ± 34 µM
- dH (ITC [2]): -8.28 ± 0.103 kcal/mol
